32 molecules from paper PMC12636033, “Chemical Engineering of Transcription Factors Uncovered Cell-Permeable μMax Modulators” can be followed below.

Sequences and labels used below:
B1: dBr_Jan07_36343 (dsDNA)
DNA 1: ATCGGTTAAAGTAACTATATTGGGCTTATCGGACCAGTCTGTGTTCCGTTGTCCGTGCTG
DNA 2: CAGCACGGACAACGGAACACAGACTGGTCCGATAAGCCCAATATAGTTACTTTAACCGAT
B2: dBr_Jan07_18594 (dsDNA)
DNA 1: CCAACATCTAAGACCCTGGTAGGGCCTTTCCGACCCGTCTGTGTTCCGTTGTCCGTGCTG
DNA 2: CAGCACGGACAACGGAACACAGACGGGTCGGAAAGGCCCTACCAGGGTCTTAGATGTTGG
B3: dBr_Jan07_40232 (dsDNA)
DNA 1: TCGCGGAGACACCGCACTACGAGTGGCGAGAAGACCGTCTGTGTTCCGTTGTCCGTGCTG
DNA 2: CAGCACGGACAACGGAACACAGACGGTCTTCTCGCCACTCGTAGTGCGGTGTCTCCGCGA
B4: dBr_Jan07_16464 (dsDNA)
DNA 1: AGATCCAACGAGAGTTATGGACAAACTGGTCCTACAGTCTGTGTTCCGTTGTCCGTGCTG
DNA 2: CAGCACGGACAACGGAACACAGACTGTAGGACCAGTTTGTCCATAACTCTCGTTGGATCT
B5: dBr_Jan07_34791 (dsDNA)
DNA 1: GACTTGCCTACTACGCCAGAATTAGCTAGTTGGGTAGTCTGTGTTCCGTTGTCCGTGCTG
DNA 2: CAGCACGGACAACGGAACACAGACTACCCAACTAGCTAATTCTGGCGTAGTAGGCAAGTC
B6: dBr_Jan07_08921 (dsDNA)
DNA 1: CAGACAAAGTCACTGGGCGAGCATGAACCGTTTGCCGTCTGTGTTCCGTTGTCCGTGCTG
DNA 2: CAGCACGGACAACGGAACACAGACGGCAAACGGTTCATGCTCGCCCAGTGACTTTGTCTG
B7: dBr_Jan07_17648 (dsDNA)
DNA 1: TTGCGCCCCCAGTCCCGGATATCATAGGAACGAGGAGTCTGTGTTCCGTTGTCCGTGCTG
DNA 2: CAGCACGGACAACGGAACACAGACTCCTCGTTCCTATGATATCCGGGACTGGGGGCGCAA
B8: dBr_Jan07_10189 (dsDNA)
DNA 1: GTTTGTGAGGTTCCTGACTCTGAGCGGACCGGTAGAGTCTGTGTTCCGTTGTCCGTGCTG
DNA 2: CAGCACGGACAACGGAACACAGACTCTACCGGTCCGCTCAGAGTCAGGAACCTCACAAAC
B9: dBr_Jan07_32293 (dsDNA)
DNA 1: TCGCGGCTCGAAGCACCCTCCCCAGGGGCATCAGCAGTCTGTGTTCCGTTGTCCGTGCTG
DNA 2: CAGCACGGACAACGGAACACAGACTGCTGATGCCCCTGGGGAGGGTGCTTCGAGCCGCGA
B10: dBr_Jan07_07252 (dsDNA)
DNA 1: ATCCTGCCGCTTTCAATCGCCGGACAGCGATCGACAGTCTGTGTTCCGTTGTCCGTGCTG
DNA 2: CAGCACGGACAACGGAACACAGACTGTCGATCGCTGTCCGGCGATTGAAAGCGGCAGGAT
B11: dBr_Jan07_10036 (dsDNA)
DNA 1: CCGCGGACAGGTTCAGCCATCCGACTGCTACGCACAGTCTGTGTTCCGTTGTCCGTGCTG
DNA 2: CAGCACGGACAACGGAACACAGACTGTGCGTAGCAGTCGGATGGCTGAACCTGTCCGCGG
B12: dBr_Jan07_22649 (dsDNA)
DNA 1: TTACATACCAGGACTTATCGCATAGGTAGGCTGAGAGTCTGTGTTCCGTTGTCCGTGCTG
DNA 2: CAGCACGGACAACGGAACACAGACTCTCAGCCTACCTATGCGATAAGTCCTGGTATGTAA
B13: dBr_Jan07_33770 (dsDNA)
DNA 1: GCGACCCTTCCACGTGCGTGTGTTAATGAGCGCATTGTCTGTGTTCCGTTGTCCGTGCTG
DNA 2: CAGCACGGACAACGGAACACAGACAATGCGCTCATTAACACACGCACGTGGAAGGGTCGC
B14: dBr_Jan07_39645 (dsDNA)
DNA 1: AGATCAAAACGTAAGACGACAGGCGAACTTCAGTAAGTCTGTGTTCCGTTGTCCGTGCTG
DNA 2: CAGCACGGACAACGGAACACAGACTTACTGAAGTTCGCCTGTCGTCTTACGTTTTGATCT
B15: dBr_Jan07_19630 (dsDNA)
DNA 1: AAGCGAGCAGATAAGCCTAAGCCCGAGCTGAACAAAGTCTGTGTTCCGTTGTCCGTGCTG
DNA 2: CAGCACGGACAACGGAACACAGACTTTGTTCAGCTCGGGCTTAGGCTTATCTGCTCGCTT
B16: dBr_Jan07_31951 (dsDNA)
DNA 1: CATGAGAATCGGCCCGGGTTACGTTCGCGGTACAATGTCTGTGTTCCGTTGTCCGTGCTG
DNA 2: CAGCACGGACAACGGAACACAGACATTGTACCGCGAACGTAACCCGGGCCGATTCTCATG
B17: dBr_Jan07_14635 (dsDNA)
DNA 1: CCTAGAATTCCAACATGACTGTCAACTTGGGAATCTGTCTGTGTTCCGTTGTCCGTGCTG
DNA 2: CAGCACGGACAACGGAACACAGACAGATTCCCAAGTTGACAGTCATGTTGGAATTCTAGG
B18: dBr_Jan07_04879 (dsDNA)
DNA 1: ATAACGGCCCGCCTGGACTGATACTCTGTCGCACCAGTCTGTGTTCCGTTGTCCGTGCTG
DNA 2: CAGCACGGACAACGGAACACAGACTGGTGCGACAGAGTATCAGTCCAGGCGGGCCGTTAT
B19: dBr_Jan07_39455 (dsDNA)
DNA 1: TGAAAGACCTTAGATGGGCTTGTCTCTTGGCGTTTGGTCTGTGTTCCGTTGTCCGTGCTG
DNA 2: CAGCACGGACAACGGAACACAGACCAAACGCCAAGAGACAAGCCCATCTAAGGTCTTTCA
B20: dBr_Jan07_22788 (dsDNA)
DNA 1: TTGTTTCGCATCGCTAGGCATTGATAACGGAAGCTGGTCTGTGTTCCGTTGTCCGTGCTG
DNA 2: CAGCACGGACAACGGAACACAGACCAGCTTCCGTTATCAATGCCTAGCGATGCGAAACAA
B21: dBr_Jan07_28571 (dsDNA)
DNA 1: TCGTTCTTATTTTGGCACGTGCACCCGCTTTGCTCAGTCTGTGTTCCGTTGTCCGTGCTG
DNA 2: CAGCACGGACAACGGAACACAGACTGAGCAAAGCGGGTGCACGTGCCAAAATAAGAACGA
B22: dBr_Jan07_23776 (dsDNA)
DNA 1: CAGCCGCGGCGCCTCTAGCAATCAGGAGCGTCGGTAGTCTGTGTTCCGTTGTCCGTGCTG
DNA 2: CAGCACGGACAACGGAACACAGACTACCGACGCTCCTGATTGCTAGAGGCGCCGCGGCTG
B23: dBr_Jan07_00062 (dsDNA)
DNA 1: TGGTGACCTGAGAGGCCGGTTGCTTCAGCCTACAACGTCTGTGTTCCGTTGTCCGTGCTG
DNA 2: CAGCACGGACAACGGAACACAGACGTTGTAGGCTGAAGCAACCGGCCTCTCAGGTCACCA
B24: dBr_Jan07_30609 (dsDNA)
DNA 1: CGGAAGTCAGATAAAAGGTGGTATCGCGGCTTTAAAGTCTGTGTTCCGTTGTCCGTGCTG
DNA 2: CAGCACGGACAACGGAACACAGACTTTAAAGCCGCGATACCACCTTTTATCTGACTTCCG
B25: dBr_Jan07_18521 (dsDNA)
DNA 1: ACCAATTAGAACGTATCTATGGAGCTTGCCCGATCGGTCTGTGTTCCGTTGTCCGTGCTG
DNA 2: CAGCACGGACAACGGAACACAGACCGATCGGGCAAGCTCCATAGATACGTTCTAATTGGT
B26: dBr_Jan07_38419 (dsDNA)
DNA 1: ATTGCTCAGTGACACAGATATGAAGCGCTATGCATCGTCTGTGTTCCGTTGTCCGTGCTG
DNA 2: CAGCACGGACAACGGAACACAGACGATGCATAGCGCTTCATATCTGTGTCACTGAGCAAT
B27: dBr_Jan07_00680 (dsDNA)
DNA 1: ACACCAGCGCGTCAGGAGTTGTGTGAACCCACACCCGTCTGTGTTCCGTTGTCCGTGCTG
DNA 2: CAGCACGGACAACGGAACACAGACGGGTGTGGGTTCACACAACTCCTGACGCGCTGGTGT
B28: dBr_Jan07_33794 (dsDNA)
DNA 1: TATTAGAATGTCAGCTCTCAATCACGTGATTCGGAAGTCTGTGTTCCGTTGTCCGTGCTG
DNA 2: CAGCACGGACAACGGAACACAGACTTCCGAATCACGTGATTGAGAGCTGACATTCTAATA
B29: dBr_Jan07_03145 (dsDNA)
DNA 1: CCGATTTAGGAGCGGGTAAATACAGGCAGCTCTCTGGTCTGTGTTCCGTTGTCCGTGCTG
DNA 2: CAGCACGGACAACGGAACACAGACCAGAGAGCTGCCTGTATTTACCCGCTCCTAAATCGG
B30: dBr_Jan07_02776 (dsDNA)
DNA 1: GACGAAGTAAGGCTAGCTTGTCGCTAAAAAGACGCAGTCTGTGTTCCGTTGTCCGTGCTG
DNA 2: CAGCACGGACAACGGAACACAGACTGCGTCTTTTTAGCGACAAGCTAGCCTTACTTCGTC
B31: dBr_Jan07_26545 (dsDNA)
DNA 1: ACTGCGCCGGAGAGTTCAACGAACTACTACGTCGAAGTCTGTGTTCCGTTGTCCGTGCTG
DNA 2: CAGCACGGACAACGGAACACAGACTTCGACGTAGTAGTTCGTTGAACTCTCCGGCGCAGT
B32: dBr_Jan07_10789 (dsDNA)
DNA 1: ACGAGTGGCCCTCGCATCGCGGAAGCTAGACTGATTGTCTGTGTTCCGTTGTCCGTGCTG
DNA 2: CAGCACGGACAACGGAACACAGACAATCAGTCTAGCTTCCGCGATGCGAGGGCCACTCGT

For this series, the target named is WT Max (Homo sapiens, UniProt P61244-2 13-93, M65Nle, norleucine written as M; other non-natural residues written as X). The experiment in a line: PBM; 50-200 nM protein; PBS, 2% milk, BSA, salmon testes DNA, 0.02% Triton X-100. Particulars: chain copies: 2; label: surface-attached array probe.
WT Max, sequence (P61244 other isoform, or with tags, fused parts or gaps M65Nle): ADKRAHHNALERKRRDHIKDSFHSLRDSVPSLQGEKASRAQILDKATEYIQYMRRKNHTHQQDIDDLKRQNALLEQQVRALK
As to B1, the binding signal is -0.56 robust z of log adjusted intensity (ours), mean of two arrays.

On to B2, for which the binding signal was -0.86 robust z of log adjusted intensity (ours), mean of two arrays.

As to B3, the binding signal is -0.86 robust z of log adjusted intensity (ours), mean of two arrays.

B4: the binding signal was -1 robust z of log adjusted intensity (ours), mean of two arrays.

B5: the binding signal was -0.49 robust z of log adjusted intensity (ours), mean of two arrays.

Take B6: the binding signal was -0.81 robust z of log adjusted intensity (ours), mean of two arrays.

Take B7: the binding signal was -1.18 robust z of log adjusted intensity (ours), mean of two arrays.

For the molecule B8, the binding signal was -0.8 robust z of log adjusted intensity (ours), mean of two arrays.

For the molecule B9, the binding signal is -0.93 robust z of log adjusted intensity (ours), mean of two arrays.

As to B10, the binding signal is -0.55 robust z of log adjusted intensity (ours), mean of two arrays.

As for B11, the binding signal is -0.76 robust z of log adjusted intensity (ours), mean of two arrays.

In the case of B12, the binding signal is -0.77 robust z of log adjusted intensity (ours), mean of two arrays.

With B13, the binding signal was 4.84 robust z of log adjusted intensity (ours), mean of two arrays.

On to B14, for which the binding signal was -1.15 robust z of log adjusted intensity (ours), mean of two arrays.

For the molecule B15, the binding signal was -0.87 robust z of log adjusted intensity (ours), mean of two arrays.

Turning to B16, the binding signal was -0.54 robust z of log adjusted intensity (ours), mean of two arrays.

In the case of B17, the binding signal was -0.81 robust z of log adjusted intensity (ours), mean of two arrays.

Take B18: the binding signal is -0.92 robust z of log adjusted intensity (ours), mean of two arrays.

With B19, the binding signal was -0.88 robust z of log adjusted intensity (ours), mean of two arrays.

B20: the binding signal is -0.82 robust z of log adjusted intensity (ours), mean of two arrays.

Take B21: the binding signal was 5.15 robust z of log adjusted intensity (ours), mean of two arrays.

Regarding B22, the binding signal is -0.83 robust z of log adjusted intensity (ours), mean of two arrays.

For B23, the binding signal was -0.8 robust z of log adjusted intensity (ours), mean of two arrays.

For the molecule B24, the binding signal was -0.46 robust z of log adjusted intensity (ours), mean of two arrays.

For B25, the binding signal is -0.67 robust z of log adjusted intensity (ours), mean of two arrays.

Regarding B26, the binding signal was -0.96 robust z of log adjusted intensity (ours), mean of two arrays.

Regarding B27, the binding signal is -0.81 robust z of log adjusted intensity (ours), mean of two arrays.

B28: the binding signal is 4.69 robust z of log adjusted intensity (ours), mean of two arrays.

As for B29, the binding signal was -1.12 robust z of log adjusted intensity (ours), mean of two arrays.

As to B30, the binding signal was -1.15 robust z of log adjusted intensity (ours), mean of two arrays.

Regarding B31, the binding signal was -0.92 robust z of log adjusted intensity (ours), mean of two arrays.

Consider B32, for which the binding signal is -0.92 robust z of log adjusted intensity (ours), mean of two arrays.
